Test results reported in article PMC3690481, “OTULIN Antagonizes LUBAC Signaling by Specifically Hydrolyzing Met1-Linked Polyubiquitin” (Cell, 2013).

Biological target: T1, FlAsH-tagged Met1-diUb (UniProt P0CG48 1-76; P0CG48 1-71, Lumio Green (FlAsH) on the C-terminal WCCPGCC motif)
T1 construct: ubiquitin, distal moiety, residues 1-76, joined by Gly76 in a peptide bond to Met1 of the proximal moiety; ubiquitin, proximal moiety; a C-terminal WCCPGCC motif replaces aa 72-76, so that residues 1-71 are left; Construct described in Ye et al., 2011; Chain: Ub(1-76)-Ub(1-71)-WCCPGCC; also called FlAsH-tagged Met1-diUb WT; Met1-linked diUb; source: expressed from pET17 plasmid, purified as …
Experiment: fluorescence polarisation; FlAsH-tagged diUb fixed (10 μl of 100 nM plus 10 μl protein), OTULIN C129A variants serially diluted; 20 mM Tris pH 7.4, 100 mM NaCl, 5 mM β-mercaptoethanol, 0.1 mg/ml BSA; one-site binding model; triplicate
Settings: both partners purified

Row | binding result | Kd [nM] | Binder
1 | binds |  | OTULIN C129A TQK100-102AAA (enzyme, human, UniProt Q96BN8 1-352, looked up, also called triple mutant TQK100-102 to AAA; source: E. coli Rosetta2 (DE3) pLacI, purified (Ni2+ resin, 3C protease, SEC)) MSRGTMPQPEAWPGASCAETPAREAAATARDGGKAAASGQPRPEMQCPAEHEEDMYRAADEIEKEKELLIHERGASEPRLSVAPEMDIMDYCKKEWRGNAAAATCMKMGYEEVSQKFTSIRRVRGDNYAALRATLFQAMSQAVGLPPWLQDPELMLLPEKLISKYNWIKQWKLGLKFDGKNEDLVDKIKESLTLLRKKWAGLAEMRTAEARQIACDELFTNEAEEYSLYEAVKFLMLNRAIELYNDKEKGKEVPFFSVLLFARDTSNDPGQLLRNHLNQVGHTGGLEQVEMFLLAYAVRHTIQVYRLSKYNTEEFITVYPTDPPKDWPVVTLIAEDDRHYNIPVRVCEETSL
2 |  | 196 | OTULINcat C129A (aa 80–352) (domain or fragment, human, UniProt Q96BN8 80-352, looked up, FAM105B/OTULIN, human, catalytic OTU domain aa 80-352, catalytic Cys129 changed to Ala; Expressed from pOPIN-F. PDB 3ZNV is the wild-type parent of the same limits; also called OTULIN (80–352) C129A; OTULIN 80-352 C129A; source: E. coli Rosetta2 (DE3) pLacI, purified (Ni2+ resin, 3C protease, anion exchange, SEC)) LSVAPEMDIMDYCKKEWRGNTQKATCMKMGYEEVSQKFTSIRRVRGDNYAALRATLFQAMSQAVGLPPWLQDPELMLLPEKLISKYNWIKQWKLGLKFDGKNEDLVDKIKESLTLLRKKWAGLAEMRTAEARQIACDELFTNEAEEYSLYEAVKFLMLNRAIELYNDKEKGKEVPFFSVLLFARDTSNDPGQLLRNHLNQVGHTGGLEQVEMFLLAYAVRHTIQVYRLSKYNTEEFITVYPTDPPKDWPVVTLIAEDDRHYNIPVRVCEETSL
